We go through three molecules from paper PMC2710861.

Series [1] addresses T1, Rad52 (human, UniProt P43351 1-418).
T1 sequence: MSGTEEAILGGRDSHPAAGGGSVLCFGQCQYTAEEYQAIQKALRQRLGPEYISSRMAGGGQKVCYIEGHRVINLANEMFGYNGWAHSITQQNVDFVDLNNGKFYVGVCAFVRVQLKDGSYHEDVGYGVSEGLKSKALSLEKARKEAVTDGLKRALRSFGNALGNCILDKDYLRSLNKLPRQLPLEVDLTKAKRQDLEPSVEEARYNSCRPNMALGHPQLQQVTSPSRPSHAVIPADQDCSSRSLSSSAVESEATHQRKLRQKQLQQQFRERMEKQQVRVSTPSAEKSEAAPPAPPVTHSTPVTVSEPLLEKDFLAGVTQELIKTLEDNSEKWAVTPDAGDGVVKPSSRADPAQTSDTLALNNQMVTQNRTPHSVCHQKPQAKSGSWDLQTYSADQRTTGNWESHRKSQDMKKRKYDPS
The experiment in a line: UV cross-linking.

Series [2] deals with RPA heterotrimer (RPA70/RPA32/RPA14);Rad52 (human;human, UniProt P27694;P15927;P35244;P43351 1-616;1-270;1-121;1-418, |). Kind of series: SEC-MALS and UV cross-linking.
Chain of RPA heterotrimer (RPA70/RPA32/RPA14);Rad52 (P27694 whole entry, chain 1 of 3): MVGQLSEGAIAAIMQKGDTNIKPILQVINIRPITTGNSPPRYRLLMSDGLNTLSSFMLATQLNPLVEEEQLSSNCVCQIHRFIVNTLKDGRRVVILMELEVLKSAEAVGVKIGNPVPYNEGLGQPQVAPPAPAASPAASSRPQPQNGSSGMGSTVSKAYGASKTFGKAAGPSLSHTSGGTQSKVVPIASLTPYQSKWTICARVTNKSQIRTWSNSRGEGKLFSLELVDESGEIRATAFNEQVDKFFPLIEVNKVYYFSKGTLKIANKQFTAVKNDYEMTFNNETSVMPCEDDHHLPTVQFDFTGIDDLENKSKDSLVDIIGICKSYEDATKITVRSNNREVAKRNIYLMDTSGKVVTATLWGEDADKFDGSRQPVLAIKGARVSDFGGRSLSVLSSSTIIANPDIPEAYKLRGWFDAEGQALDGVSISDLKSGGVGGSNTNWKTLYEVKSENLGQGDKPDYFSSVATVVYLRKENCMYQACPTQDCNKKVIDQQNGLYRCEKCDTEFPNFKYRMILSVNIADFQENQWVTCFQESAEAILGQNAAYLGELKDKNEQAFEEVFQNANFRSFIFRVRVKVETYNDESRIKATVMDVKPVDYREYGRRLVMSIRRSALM
Chain of RPA heterotrimer (RPA70/RPA32/RPA14);Rad52 (P15927 whole entry, chain 2 of 3): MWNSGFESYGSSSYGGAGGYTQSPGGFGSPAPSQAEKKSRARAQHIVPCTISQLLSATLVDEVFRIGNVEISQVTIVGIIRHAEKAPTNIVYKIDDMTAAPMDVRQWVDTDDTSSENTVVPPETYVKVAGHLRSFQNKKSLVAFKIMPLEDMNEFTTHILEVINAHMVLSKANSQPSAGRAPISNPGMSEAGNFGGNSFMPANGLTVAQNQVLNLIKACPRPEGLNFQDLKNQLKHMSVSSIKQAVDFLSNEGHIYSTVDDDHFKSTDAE
Chain of RPA heterotrimer (RPA70/RPA32/RPA14);Rad52 (P35244 whole entry, chain 3 of 3): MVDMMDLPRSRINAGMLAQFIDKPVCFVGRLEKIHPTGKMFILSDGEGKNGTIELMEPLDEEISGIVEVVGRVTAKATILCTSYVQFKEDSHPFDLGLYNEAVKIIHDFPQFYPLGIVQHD
For series [3], the target named is RPA heterotrimer (RPA70/RPA32/RPA14) (human, UniProt P27694;P15927;P35244 1-616;1-270;1-121). Kind of series: EMSA.
Chain of RPA heterotrimer (RPA70/RPA32/RPA14) (P27694 whole entry, chain 1 of 3): as the sequence (P27694 whole entry, chain 1 of 3) above
Chain of RPA heterotrimer (RPA70/RPA32/RPA14) (P15927 whole entry, chain 2 of 3): as the sequence (P15927 whole entry, chain 2 of 3) above
Chain of RPA heterotrimer (RPA70/RPA32/RPA14) (P35244 whole entry, chain 3 of 3): as the sequence (P35244 whole entry, chain 3 of 3) above
For series [4], the target named is T1, Rad52. The experiment in a line: EMSA.
Series [5] concerns the target T1, Rad52. Kind of series: SEC-MALS.

GCTAGCTCAATTCATCGACAAACCT (ssDNA) [25-mer mixed sequence ssDNA, 3'-biotin]: the binding result (with Rad52 [1]; in series [2]; in series [3]) was “binds” in each case.

GCTAGCTCAATTCATCGACAAACCT (ssDNA) [25-mer mixed sequence ssDNA, 5'-biotin]: the binding result in the series with Rad52 [4] is reported as “binds”.

Turning to GCTAGCTCAATTCATCGACAAACCTCCTCGCTCAATTCATAGTC (ssDNA) [44-mer mixed sequence ssDNA], in the series with Rad52 [5], the binding result is reported as “binds”.
